Data: paper PMC12559291
Values joined by “and” are separate entries in the source; they are usually repeats but may differ in a detail not shown here. Equal values may be shown once.

What was measured:
[1] = target: α5β1 integrin purified from rat liver (rat) (UniProt P49134); test: cryo-EM structure; rat α5β1 integrin in peptidiscs on cobalt beads, sialidase-treated, 4 μM Gal3 for 2 h at 21 °C, eluted with 10 mM EDTA and vitrified at once; 6.9 Å
[2] = target: galectin-3 (Gal3), human recombinant, made as Gal3-TEV-6xHis and freed of the tag by TEV protease (human) (UniProt P17931); test: negative stain EM; Gal3 or Gal3∆Nter (4 μM, 2 h at 21 °C) on inactive rat α5β1 integrin in nanodiscs held on cobalt beads, washed, eluted with 50 μM I3; the eluted particles counted as monomers or ring-shaped oligomers
[3] = target: galectin-3 (Gal3), human recombinant, made as Gal3-TEV-6xHis and freed of the tag by TEV protease (human) (UniProt P17931); test: negative stain EM; lactose-washed RPE-1 cells with exogenous Gal3 (50 μg/mL) for 30 min at 4 °C; surface-bound Gal3 eluted with I3; 2D classification of the eluted particles in cryoSPARC
[4] = target: galectin-3 (Gal3), human recombinant, made as Gal3-TEV-6xHis and freed of the tag by TEV protease (human) (UniProt P17931); test: cryo-EM structure; rat α5β1 integrin in GSL-containing nanodiscs on cobalt beads, sialidase-treated, 4 μM Gal3 for 2 h at 21 °C, eluted with 10 mM EDTA and vitrified at once; three subsets at 7.4, 8.5 and 7.6 Å; Gal3 CRDs (PDB 1KJL) fitted as rigid bodies
[5] = target: α5β1 integrin purified from rat liver (rat) (UniProt P49134); test: as above
[6] = target: α5β1 integrin purified from rat liver (rat) (UniProt P49134); test: single-molecule photobleaching (TIRF); sialidase-treated rat α5β1 integrin in biotinylated peptidiscs complexed with 4 μM Gal3-Cy3 on cobalt beads, eluted with EDTA, immobilised on neutravidin-coated glass; 21 °C

stoichiometry N [1]: 2 | percent of eluted Gal3 particles that are ring-shaped oligomers [2]: 40% | percent of oligomer particles classed as dimers [3]: 37% | percent of oligomer particles classed as tetramers [3]: 22% | percent of oligomer particles classed as trimers [3]: 41% | stoichiometry N [3]: 2 and 3 and 4 | stoichiometry N [4]: 2 and 3 and 4 | stoichiometry N [5]: 2 and 3 and 4 | stoichiometry N [6]: < 4
Substance: galectin-3 (Gal3), human recombinant, made as Gal3-TEV-6xHis and freed of the tag by TEV protease (from UniProt P17931 1-250) (natural protein)
